Assay results as given in article PMC9637899.
Values joined by “and” are separate entries in the source; they are usually repeats but may differ in a detail not shown here. Identical values can stand only once.

Key:
[1] = target: ElpB_(182–378) (B. burgdorferi) (UniProt H7C7R2); experiment: SPR; Elp truncation amine-coupled to a CMD200 chip; multicycle twofold injection series of C1s enzyme or activated C1s–CCP1–CCP2–SP constructs from 200 nM; HBS-T Ca2+ (10 mM Hepes pH 7.3, 140 mM NaCl, 0.005% Tween-20, 5 mM CaCl2), 30 ul/min; K_(D, kin) from a kinetic and K_(D, ss) from a steady-state 1:1 (Langmuir) fit; triplicate
[2] = target: ElpQ_(181–343) (B. burgdorferi); experiment: as above
[3] = target: activated c-Myc-C1s–CCP1–CCP2–SP_(S632A) (human) (UniProt P09871); experiment: AlphaScreen or HTRF; competition: 50 nM GST-ElpQ on glutathione donor beads and 500 nM activated c-Myc-C1s–CCP1–CCP2–SP_(S632A) on anti-c-Myc acceptor beads, 12-point twofold dilution of untagged competitor; HBS-T Ca2+, 1 h at room temperature; IC50 taken to approximate KD (Cheng–Prusoff)
[4] = target: activated C1s–CCP1–CCP2–SP (human) (UniProt P09871)
[5] = target: ElpB_(111–378) (B. burgdorferi); experiment: SPR; Elp truncation amine-coupled to a CMD200 chip; multicycle twofold injection series of C1s enzyme or activated C1s–CCP1–CCP2–SP constructs from 200 nM; HBS-T Ca2+ (10 mM Hepes pH 7.3, 140 mM NaCl, 0.005% Tween-20, 5 mM CaCl2), 30 ul/min; K_(D, kin) from a kinetic and K_(D, ss) from a steady-state 1:1 (Langmuir) fit; triplicate

Chain of activated c-Myc-C1s–CCP1–CCP2–SP_(S632A) (human) (P09871 16-688 S632A): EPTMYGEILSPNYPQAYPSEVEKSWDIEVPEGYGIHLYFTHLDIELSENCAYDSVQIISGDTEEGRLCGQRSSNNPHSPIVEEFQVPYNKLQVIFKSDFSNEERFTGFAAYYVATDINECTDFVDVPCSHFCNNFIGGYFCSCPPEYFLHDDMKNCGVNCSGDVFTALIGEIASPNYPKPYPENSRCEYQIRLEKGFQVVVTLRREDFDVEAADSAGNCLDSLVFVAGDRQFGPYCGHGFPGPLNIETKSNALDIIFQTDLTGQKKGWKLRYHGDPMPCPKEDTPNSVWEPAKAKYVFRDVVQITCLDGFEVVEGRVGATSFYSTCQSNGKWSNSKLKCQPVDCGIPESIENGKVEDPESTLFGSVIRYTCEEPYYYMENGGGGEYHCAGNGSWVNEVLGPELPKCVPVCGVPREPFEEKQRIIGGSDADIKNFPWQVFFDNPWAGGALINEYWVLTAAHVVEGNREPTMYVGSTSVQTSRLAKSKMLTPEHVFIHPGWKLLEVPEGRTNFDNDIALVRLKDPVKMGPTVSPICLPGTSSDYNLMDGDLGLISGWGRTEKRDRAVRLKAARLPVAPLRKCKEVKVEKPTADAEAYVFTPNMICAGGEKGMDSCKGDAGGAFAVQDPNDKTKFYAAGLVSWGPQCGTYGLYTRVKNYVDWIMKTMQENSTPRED
Chain of activated C1s–CCP1–CCP2–SP (human) (P09871 292-688): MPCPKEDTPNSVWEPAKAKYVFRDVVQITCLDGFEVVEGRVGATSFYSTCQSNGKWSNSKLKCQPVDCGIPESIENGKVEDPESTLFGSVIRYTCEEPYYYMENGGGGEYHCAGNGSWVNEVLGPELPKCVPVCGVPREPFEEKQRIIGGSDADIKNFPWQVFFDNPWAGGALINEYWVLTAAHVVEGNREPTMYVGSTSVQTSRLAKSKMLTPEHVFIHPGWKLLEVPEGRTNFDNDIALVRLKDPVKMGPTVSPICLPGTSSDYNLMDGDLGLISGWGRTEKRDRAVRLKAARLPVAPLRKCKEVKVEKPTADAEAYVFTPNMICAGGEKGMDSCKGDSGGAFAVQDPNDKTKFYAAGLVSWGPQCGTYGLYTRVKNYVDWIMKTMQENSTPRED

Substance | Kd [2] | Kd [3] | other results
C1s CCP1–CCP2–SP CCPE (from UniProt P09871) (domain or fragment) | 370 nM |  | Kd [1]: 570 nM
ElpB_(182–378) (from UniProt H7C7R2 182-378) (domain or fragment) |  | 45 nM | 
ElpQ_(19–343) (natural protein) |  | 190 nM | 
ElpQ_(181–343) (domain or fragment) |  | 110 nM | IC50 of inhibition of C4 cleavage by 6.25 nM activated C1s–CCP1–CCP2–SP, SDS-PAGE densitometry, ElpQ (181–343) 25 to 0.20 uM; blocks m9 with m17 [4]: 3600 nM
activated C1s–CCP1–CCP2–SP (from UniProt P09871 292-688) (domain or fragment) | 210 nM |  | 
complement component C4 (natural protein) |  | 740 nM | 
purified full-length activated C1s enzyme | 17 nM and 31 nM |  | Kd [5]: 21 nM and 35 nM; Kd [1]: 47 nM and 85 nM
